“Also recorded” adds a separate entry of the source. Read-outs that look alike come from different tables or passages of the source. Where no end group is shown, it is not given here. [ ]: non-standard residue; d: D form. Cyt = cystine residue, as named in the source; pGlu = O=C1CC[C@@H](C(=O)O)N1
T1: AT4 receptor (Bos taurus, UniProt F1N1Q8)
T1 construct: from tissue; host or cells: bovine adrenal gland membranes
T1 sequence (F1N1Q8 1-1022): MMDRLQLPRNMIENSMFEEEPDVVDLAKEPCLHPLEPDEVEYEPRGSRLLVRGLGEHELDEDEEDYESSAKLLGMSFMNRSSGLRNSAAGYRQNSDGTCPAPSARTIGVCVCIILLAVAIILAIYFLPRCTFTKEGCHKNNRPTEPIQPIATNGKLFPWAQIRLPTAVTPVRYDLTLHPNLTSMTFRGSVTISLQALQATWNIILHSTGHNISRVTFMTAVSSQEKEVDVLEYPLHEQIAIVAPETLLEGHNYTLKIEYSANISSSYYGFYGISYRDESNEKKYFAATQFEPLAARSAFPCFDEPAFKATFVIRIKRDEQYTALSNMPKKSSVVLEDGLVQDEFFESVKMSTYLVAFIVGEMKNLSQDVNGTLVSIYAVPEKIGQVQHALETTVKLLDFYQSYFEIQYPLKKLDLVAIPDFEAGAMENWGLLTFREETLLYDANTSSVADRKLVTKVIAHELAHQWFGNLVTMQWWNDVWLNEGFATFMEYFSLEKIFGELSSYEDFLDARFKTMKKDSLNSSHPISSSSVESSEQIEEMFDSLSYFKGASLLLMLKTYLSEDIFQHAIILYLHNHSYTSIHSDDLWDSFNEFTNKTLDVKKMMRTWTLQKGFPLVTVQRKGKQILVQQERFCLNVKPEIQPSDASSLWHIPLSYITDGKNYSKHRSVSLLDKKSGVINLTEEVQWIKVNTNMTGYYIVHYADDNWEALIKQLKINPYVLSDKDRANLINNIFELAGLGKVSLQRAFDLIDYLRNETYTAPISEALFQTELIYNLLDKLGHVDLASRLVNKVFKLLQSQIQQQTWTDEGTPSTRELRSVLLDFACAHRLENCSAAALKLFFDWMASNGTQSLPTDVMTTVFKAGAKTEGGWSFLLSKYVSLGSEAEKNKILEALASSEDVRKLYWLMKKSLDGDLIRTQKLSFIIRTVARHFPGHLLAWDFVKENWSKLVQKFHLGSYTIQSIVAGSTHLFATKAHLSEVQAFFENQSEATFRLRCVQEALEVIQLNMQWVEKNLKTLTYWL


Tests used:
IRAP [1] = molecular target: T2, IRAP (Homo sapiens, UniProt Q9UIQ6); assay: Degradation of peptides by IRAP expressed in HEK 293T cells, HPLC with mass spectrometric detection; format: biochemical; conditions: for Substrate disappearance over 4 hr: 37° C., hIRAP transfected HEK 293T membranes, (=UT) equals untransfected control cells; for Products Identified: incubation at 37° C. with solubilized membrane protein from hIRAP transfected HEK 293T cells; for cleavage by IRAP: up to 6 hr
T2 construct: expressed in transfected cells; host or cells: HEK 293T cells (solubilised membrane protein)
T2 sequence (Q9UIQ6 whole entry): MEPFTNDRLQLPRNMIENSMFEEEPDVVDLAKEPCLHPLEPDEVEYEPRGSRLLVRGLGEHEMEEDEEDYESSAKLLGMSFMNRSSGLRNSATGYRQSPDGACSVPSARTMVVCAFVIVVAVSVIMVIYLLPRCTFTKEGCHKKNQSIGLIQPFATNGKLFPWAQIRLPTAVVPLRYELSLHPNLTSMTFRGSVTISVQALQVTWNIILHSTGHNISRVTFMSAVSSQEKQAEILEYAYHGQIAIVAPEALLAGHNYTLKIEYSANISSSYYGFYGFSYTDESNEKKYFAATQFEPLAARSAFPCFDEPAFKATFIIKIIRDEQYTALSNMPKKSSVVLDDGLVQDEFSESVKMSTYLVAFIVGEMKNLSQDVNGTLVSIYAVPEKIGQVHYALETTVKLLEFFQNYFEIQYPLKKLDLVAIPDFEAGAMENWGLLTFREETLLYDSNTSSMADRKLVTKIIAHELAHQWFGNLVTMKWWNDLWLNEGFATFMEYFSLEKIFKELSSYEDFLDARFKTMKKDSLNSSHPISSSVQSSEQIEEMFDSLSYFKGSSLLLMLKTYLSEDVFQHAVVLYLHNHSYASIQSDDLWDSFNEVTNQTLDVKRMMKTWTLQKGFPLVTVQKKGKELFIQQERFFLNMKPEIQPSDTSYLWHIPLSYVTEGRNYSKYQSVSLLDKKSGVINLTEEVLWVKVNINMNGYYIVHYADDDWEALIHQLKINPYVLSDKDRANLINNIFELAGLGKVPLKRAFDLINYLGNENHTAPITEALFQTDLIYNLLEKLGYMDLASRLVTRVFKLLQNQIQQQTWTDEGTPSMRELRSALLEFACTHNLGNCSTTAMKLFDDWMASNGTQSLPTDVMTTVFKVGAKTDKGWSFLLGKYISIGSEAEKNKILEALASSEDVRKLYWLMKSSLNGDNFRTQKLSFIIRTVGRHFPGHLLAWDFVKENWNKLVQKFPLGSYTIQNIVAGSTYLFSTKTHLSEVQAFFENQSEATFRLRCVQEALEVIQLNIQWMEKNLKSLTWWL
Protocol: At each time point (0, 0.5, 1, 2, 4 & 6 hr), an aliquot containing 5 μg peptide was removed, and the reaction stopped by addition of 4 volumes methanol/1% trifluoroacetic acid (TPA). Samples were dried on a centrifugal vacuum evaporator prior to HPLC analysis with on-line mass spectrometric detector. […] Fragments were identified following mass spectral analysis, using Agilent ChemStation deconvolution software.

IRAP [2] = molecular target: T2, IRAP; assay: IRAP enzymatic activity, hydrolysis of L-leucine-β-naphthylamide (fluorescence); format: biochemical
Source text: For example, Hek293 cells stably transfected with a eukaryotic expression vector expressing the AT4 receptor gene may be utilized. An example of this is the vector pcDNA-3 containing the cDNA encoding the full length AT4 receptor. Two assay systems are used, one for each spliced variant of the human AT4 receptor gene. The assay system involves the measurement of the rate of hydrolysis of L-leucyl β-naphthylamide by the AT4 receptor. The rate of hydrolysis by the transfected cells is followed by recording the increase in fluorescence (excitation at 340 nm, emission at 410 nm) using a purpose-designed fluorimeter. Test compounds are added to the assay system, and their effects on the hydrolysis of L-leucyl β-naphthylamide are a direct indicator of their modulation of AT4 receptor activity.
Crude membranes were prepared from HEK 293 cells stably transfected with pcDNA-3 containing the cDNA encoding the full length AT4 receptor/IRAP, using the same method as that described for bovine adrenal membranes. The membranes were solubilised in 50 mM Tris-HCl containing 1% Triton-X100 at 4° C. for 16 h. The IRAP enzymatic activity was determined by the hydrolysis of a synthetic substrate, L-leucine-β-naphthylamide, and monitored by the release of a fluorogenic product on a spectrophotometer set at excitation 340 nm and emission 410 nm. One hundred μM of the substrate was added to 10 μg of solubilised membranes, and the increase in fluorescence monitored for 10 min.
Samples were assayed 2-3 times in triplicate, except controls, which were performed 5 times in triplicate.

IRAP (AT4 receptor) = molecular target: T3, IRAP (AT4 receptor) (Homo sapiens, UniProt Q9UIQ6); assay: ^125I-Nle^1 Ang IV binding to membranes of HEK 293 cells transfected with IRAP cDNA
T3 construct: expressed in transfected cells; host or cells: HEK 293 cells (membranes)
T3 sequence (Q9UIQ6 whole entry): as above
Source text: The amount of radioligand bound to the membranes from HEK 293 cells transfected with IRAP cDNA was expressed as a percentage of radioligand bound to membranes from HEK 293 cells transfected with control plasmids.

rats = conditions: rat, in vivo, iv; cited from earlier work
[3] = molecular target: human insulin-regulated aminopeptidase (IRAP) / angiotensin IV (AT4) receptor (human) (UniProt Q9UIQ6); assay: cell-based or functional assay
Chain of human insulin-regulated aminopeptidase (IRAP) / angiotensin IV (AT4) receptor (human) (Q9UIQ6 whole entry): as above

AT4 receptor = molecular target: T1, AT4 receptor; assay: AT4 radioreceptor assay, ^125I-Ang IV binding to bovine adrenal membranes
Protocol: The AT4 radioreceptor assay was used to screen the sheep brain extracts for AT4 receptor modulatory activity. The membranes were prepared using bovine adrenal glands obtained from the abattoir. The adrenals were diced, homogenized in ice-cold hypotonic buffer (50 mM Tris, 5 mM EDTA, pH 7.4) and centrifuged for 10 min at 500 g. […] The resulting pellets were re-homogenized in hypotonic buffer. […] The samples were incubated for 2 h at 37° C., and the bound ligand was separated on Whatman GF/B glass fibre filters.

[4] = molecular target: human insulin-regulated aminopeptidase (IRAP) / angiotensin IV (AT4) receptor (human) (UniProt Q9UIQ6); assay: radioligand binding, HEK 293 and CHO cells transfected with IRAP cDNA
[5] = molecular target: human insulin-regulated aminopeptidase (IRAP) / angiotensin IV (AT4) receptor (human) (UniProt Q9UIQ6); assay: radioligand displacement of 125I-Nle-Ang IV
[6] = molecular target: human insulin-regulated aminopeptidase (IRAP) / angiotensin IV (AT4) receptor (human) (UniProt Q9UIQ6); assay: competitive inhibition of L-leucine-β-naphthylamide cleavage by solubilised membranes of IRAP-transfected HEK 293 cells; Ki from IC50=Ki(1+[S]/Km)
3T3L1 cells = assay: 2-deoxyglucose uptake in differentiated 3T3L1 adipocytes
Protocol: The effect of IRAP inhibitors on the regulation of glucose uptake was determined in 3T3L1 cells. 3T3L1 fibroblasts were differentiated by the addition of DMEM containing 5% fetal calf serum, 4 μg/ml insulin, 0.25 mM dexamethasone and 0.5 mM 3-isobutyl-1-methyl-xanthine. […] The reaction was stopped after 10 min by washing the cells in PBS. The cells were then solubilized in 0.5 N NaOH and counted.

[7] = molecular target: human insulin-regulated aminopeptidase (IRAP) / angiotensin IV (AT4) receptor (human) (UniProt Q9UIQ6); assay: cell-based or functional assay; remark: listed apart in the source
[8] = molecular target: T4, human insulin-regulated aminopeptidase (IRAP) / angiotensin IV (AT4) receptor (human, UniProt Q9UIQ6 1-1025); assay: competition with 125I-Nle1 Ang IV on IRAP-transfected cells
T4 construct: whole, on cells; also called AT4 receptor/IRAP; hIRAP
T4 sequence (Q9UIQ6 whole entry): as above

| Molecule | Substrate disappearance over 4 hr (IRAP [1]) | Products Identified (IRAP [1]) | cleavage by IRAP (IRAP [1]) | other results |
| --- | --- | --- | --- | --- |
| NC(=O)CC[C@@H]1NC(=O)[C@H](Cc2ccccc2)NC(=O)[C@H](Cc2ccc(O)cc2)NC(=O)[C@@H](N)CSSC[C@@H](C(=O)N2CCC[C@H]2C(=O)N[C@@H](CCCN=C(N)N)C(=O)NCC(N)=O)NC(=O)[C@H](CC(N)=O)NC1=O [AVP, arginine-vasopressin] | 58% | YFQNCytPRG-NH2; also recorded: FQNCytPRG-NH2 | most rapidly cleaved | IC50 (IRAP [2]): > 40000 nM |
| CC(C)[C@H](N)CN[C@@H](Cc1ccc(O)cc1)C(=O)N[C@H](CN[C@@H](Cc1c[nH]cn1)C(=O)N1CCC[C@H]1C(=O)N[C@@H](Cc1ccccc1)C(=O)O)C(C)C [Divalinal - Ang IV] | None | None | no cleavage | IC50 (IRAP (AT4 receptor)): 845 nM; IC50 (IRAP [2]): 4000 nM; Ki (IRAP [2]): 2250 nM; type of inhibition of IRAP (IRAP [2]; Lineweaver-Burk analysis): competitive inhibition; effect on the swim maze enhancement by Nle-angiotensin IV (rats): blocked |
| CC[C@H](C)[C@@H]1NC(=O)[C@H](Cc2ccc(O)cc2)NC(=O)[C@@H](N)CSSC[C@@H](C(=O)N2CCC[C@H]2C(=O)N[C@@H](CC(C)C)C(=O)NCC(N)=O)NC(=O)[C@H](CC(N)=O)NC(=O)[C@H](CCC(N)=O)NC1=O [OXY, oxytocin] | 37% | YIQNCytPLG-NH2 | most rapidly cleaved | – |
| CC(C)C[C@@H](N)[C@H](O)C(=O)N[C@H](C(=O)N[C@H](C(=O)N[C@@H](CC(=O)O)C(=O)O)C(C)C)C(C)C [amastatin] | – | – | – | inhibition at 100 µM (IRAP [2]; 100 μM amastatin): 25% |
| CC(C)C[C@H](NC(=O)[C@@H](O)[C@H](N)Cc1ccccc1)C(=O)O [bestatin] | – | – | – | inhibition at 10 µM (IRAP [2]; 10 μM bestatin): 60% |
| Ang I: angiotensin peptide (DRVYIHPFHL) | None | None | no cleavage | – |
| Angiotensin III (from UniProt P01019 26-32) (peptide) | – | – | – | Substrate disappearance over 4 hr [3]: 7% |
| GnRH: peptide tested as potential IRAP substrate | None | None | No cleavage | – |
| KYLPGPLQ | – | – | – | Ki (AT4 receptor; bovine adrenal membranes, synthetic peptides, read-out: affinity in competing for ^125I-Ang IV binding): 1 to 5 nM |
| Met-enkephalin | 65% | GGFM | most rapidly cleaved | – |
| Neurotensin (from UniProt P30990 151-163) (peptide) | – | – | – | Substrate disappearance over 4 hr [3]: 22% |
| Nle^1-Ang IV (Nle-YIHPF) (peptide) | – | – | – | fold increase in specific binding sites over control cells [4]: 10 to 20 fold; IC50 inhibition leucine β-naphthylamide [3]: 600 nM; Substrate disappearance over 4 hr [3]: 16%; IC50 [5]: 3.32 nM; Ki [6]: 340 nM |
| VYPWT | – | – | – | AT4 receptor/IRAP binding activity of fragment (AT4 receptor; structure-activity study on LVVYPWTQRF): retained full AT4 receptor/IRAP binding activity |
| [pGlu^4Cyt^6]AVP(4-9) ([pGlu]N[Cyt]PRG; ends and bridges not checked; also: Cyt6: cystine at position 6, partner not given here) [pGlu^4Cyt^6AVP] | None | None | No cleavage | – |
| acetylated AVP [AcAVP] | None | None | No cleavage | – |
| angiotensin II (DRVYIHPF) [Ang II] | None | None | no cleavage | – |
| angiotensin III [Ang III] | 7% (=UT) | RVYIHP | – | – |
| arginine-vasopressin (from UniProt P01185 20-28) (peptide) | – | – | – | IC50 of inhibition of L-leucine-β-naphthylamide cleavage [3]: > 40000 nM |
| divalinal-Ang IV (peptide) | – | – | – | IC50 inhibition leucine β-naphthylamide [3]: 4000 nM |
| insulin | – | – | – | glucose uptake under insulin stimulation (3T3L1 cells; 0.7 nM insulin): 13.5±2.6 pmol/min/well; glucose uptake under insulin stimulation (3T3L1 cells; 70 nM insulin): 19.7±1.18 pmol/min/well |
| oxytocin (from UniProt P01178 20-28) (peptide) | – | – | – | Substrate disappearance over 4 hr [3]: 37% |
| sar^1Ile^8-Ang II | None | None | – | – |
| α-Endorphin (YGGFMTSEKSQTPLVT) [16 residues, first five identical to met-enkephalin] | None | None | not cleaved at all | – |
| α-neo-Endorphin (YGGFLRKYPK) [opioid peptide, 10 residues] | 9% | GGFLRKYPK,; also recorded: GFLRKYPK, FLRKYPK | at least three N-terminal residues were cleaved | – |
| α-neo-Endorphin (from UniProt P01213 175-184) (peptide) | – | – | – | Substrate disappearance over 4 hr [3]: 9% |
| YGGFM (peptide, UniProt P01210 100-104, looked up) [Met-enkephalin] | – | – | – | Substrate disappearance over 4 hr [7]: 65% |
| KYLPGPLQ (Purified from blood-free sheep cerebral cortex; synthetic peptide used in the assays; also called complexin fragment) [KYLPGPLQ (complexin II fragment)] | – | – | – | binding result [8]: binds |

— patent US20050020519A1, “Modulation of insulin-regulated aminopeptidase (irap)/angiotensin iv (at4) receptor activity” (priority 2001, published 2005)
